Holding throughout (type): binding, cotton
The test system of test [1] is GhMYC2. In words: Yeast two hybrid with GhMYC2. The protocol:
(§1) The study on Arabidopsis had shown that the inhibition of JAZ protein on JA signaling was mainly achieved by inhibiting the transcription factor function of MYC, which had been experimentally verified by us in cotton. Based on the phylogenetic tree of Arabidopsis and cotton JAZs, we screened 6 cotton JAZs (GhJAZ1, GhJAZ7, GhJAZ9, GhJAZ10, GhJAZ11 and GhJAZ31), which were analyzed with GhMYC2, GhNINJA, GhTPL, GhHDA6, and GhCOI1 for yeast two hybrid. The amino acid sequence of GhJAZ1 was set forth in SEQ ID No. 4, and the corresponding encoding gene sequence was set forth in SEQ ID No. 39; the amino acid sequence of GhJAZ7 was set forth in SEQ ID No. 7, and the corresponding encoding gene sequence was set forth in SEQ ID No. 42; the amino acid sequence of GhJAZ9 was set forth in SEQ ID No. 2, and the corresponding encoding gene sequence was set forth in SEQ ID No. 37; the amino acid sequence of GhJAZ10 was set forth in SEQ ID No. 3, and the corresponding encoding gene sequence was set forth in SEQ ID No. 38; the amino acid sequence of GhJAZ11 was set forth in SEQ ID No. 5, and the corresponding encoding gene sequence was set forth in SEQ ID No. 40; and the amino acid sequence of GhJAZ31 was set forth in SEQ ID No. 9, and the corresponding encoding gene sequence was set forth in SEQ ID No. 44. The amino acid sequence of GhMYC2 was set forth in SEQ ID No. 71, and the corresponding encoding gene sequence was set forth in SEQ ID No. 72; the amino acid sequence of GhNINJA was set forth in SEQ ID No. 73, and the corresponding encoding gene sequence was set forth in SEQ ID No. 74; the amino acid sequence of GhTPL was set forth in SEQ ID No. 75, and the corresponding encoding gene sequence was set forth in SEQ ID No. 76; the amino acid sequence of GhHDA6 was set forth in SEQ ID No. 77, and the corresponding encoding gene sequence was set forth in SEQ ID No. 78; and the amino acid sequence of GhCOI1 was set forth in SEQ ID No. 79, and the corresponding encoding gene sequence was set forth in SEQ ID No. 80. […]

For test [2], the system named is GhMYC2. Kind of test: Luciferase experiment in tobacco leaves with GhMYC2. The conditions noted are these: no fluorescence on the control. The text has this:
Method of the luciferase experiment: GhJAZ1 (corresponding encoding gene sequence set forth in SEQ ID No. 39) was subcloned into pCAMBIA-CLuc vector (Chen, H., et al. “Firefly Luciferase Complementation Imaging Assay for Protein-Protein Interactions in Plants.” Plant Physiology 146.2(2008):368-376.) between KpnI and SalI cleavage sites, and the transcription factors such as GhMYC2 (corresponding encoding gene sequence set forth in SEQ ID No. 72), GhNINJA (corresponding encoding gene sequence set forth in SEQ ID No. 74), and GhCOI1 (corresponding encoding gene sequence set forth in SEQ ID No. 80) were subcloned into pCAMBIA-NLuc (Chen, H., et al. “Firefly Luciferase Complementation Imaging Assay for Protein-Protein Interactions in Plants.” Plant Physiology 146.2(2008):368-376.) between KpnI and SalI cleavage sites, respectively. […] Luciferase substrates were applied at the infected leaves before taking images and placed in a dark room for at least 6 min to quench fluorescence, followed by observation on the Nightowl-II LB983 instrument, using IndigoBasic software under the luciferase-5 min setting conditions.

A further test deals with GhTPL. Kind of test: Yeast two hybrid with GhTPL. The procedure:
as §1

In another test the test system is GhCOI1. Kind of test: Yeast two hybrid with GhCOI1. The conditions noted are these: in the presence of JA-Ile. The procedure: as §1
Chain of GhCOI1 (as listed by the source): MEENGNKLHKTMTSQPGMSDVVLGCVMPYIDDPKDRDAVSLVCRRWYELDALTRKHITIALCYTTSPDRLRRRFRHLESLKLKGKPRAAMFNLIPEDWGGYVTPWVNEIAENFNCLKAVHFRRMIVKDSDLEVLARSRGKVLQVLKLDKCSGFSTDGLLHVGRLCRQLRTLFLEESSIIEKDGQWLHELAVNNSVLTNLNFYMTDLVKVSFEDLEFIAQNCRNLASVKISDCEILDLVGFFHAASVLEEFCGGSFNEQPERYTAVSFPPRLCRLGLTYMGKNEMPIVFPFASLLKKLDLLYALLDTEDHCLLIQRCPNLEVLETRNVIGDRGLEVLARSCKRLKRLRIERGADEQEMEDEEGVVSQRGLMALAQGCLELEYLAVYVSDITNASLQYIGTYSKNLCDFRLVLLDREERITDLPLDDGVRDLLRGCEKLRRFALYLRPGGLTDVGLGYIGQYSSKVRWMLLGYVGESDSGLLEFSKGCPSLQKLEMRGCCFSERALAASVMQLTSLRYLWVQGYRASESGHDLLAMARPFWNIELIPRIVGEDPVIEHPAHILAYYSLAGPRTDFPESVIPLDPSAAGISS
In the next test the test system is GhNINJA. In words: Yeast two hybrid with GhNINJA. The procedure: as §1, with “44.” for “44. The amino acid sequence of GhMYC2 was set forth in SEQ ID No. 71, and the corresponding encoding gene sequence was set forth in SEQ ID No. 72; the amino acid sequence of GhNINJA was set forth in SEQ ID No. 73, and the corresponding encoding gene sequence was set forth in SEQ ID No. 74; the amino acid sequence of GhTPL was set forth in SEQ ID No. 75, and the corresponding encoding gene sequence was set forth in SEQ ID No. 76; the amino acid sequence of GhHDA6 was set forth in SEQ ID No. 77, and the corresponding encoding gene sequence was set forth in SEQ ID No. 78; and the amino acid sequence of GhCOI1 was set forth in SEQ ID No. 79, and the corresponding encoding gene sequence was set forth in SEQ ID No. 80.”
Chain of GhNINJA (as listed by the source): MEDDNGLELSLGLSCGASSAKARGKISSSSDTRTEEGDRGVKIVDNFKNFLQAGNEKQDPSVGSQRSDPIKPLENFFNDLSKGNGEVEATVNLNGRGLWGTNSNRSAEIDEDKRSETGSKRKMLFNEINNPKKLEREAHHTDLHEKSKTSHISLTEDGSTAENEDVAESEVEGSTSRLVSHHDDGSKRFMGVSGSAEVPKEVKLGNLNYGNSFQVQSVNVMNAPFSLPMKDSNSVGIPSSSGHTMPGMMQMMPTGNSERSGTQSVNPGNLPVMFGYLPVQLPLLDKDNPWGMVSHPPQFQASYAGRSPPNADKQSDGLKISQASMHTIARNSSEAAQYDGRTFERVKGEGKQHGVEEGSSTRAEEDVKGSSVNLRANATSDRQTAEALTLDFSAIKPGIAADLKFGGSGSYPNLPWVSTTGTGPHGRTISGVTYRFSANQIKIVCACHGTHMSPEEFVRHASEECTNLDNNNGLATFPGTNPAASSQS

Chain of GhMYC2 (as listed by the source): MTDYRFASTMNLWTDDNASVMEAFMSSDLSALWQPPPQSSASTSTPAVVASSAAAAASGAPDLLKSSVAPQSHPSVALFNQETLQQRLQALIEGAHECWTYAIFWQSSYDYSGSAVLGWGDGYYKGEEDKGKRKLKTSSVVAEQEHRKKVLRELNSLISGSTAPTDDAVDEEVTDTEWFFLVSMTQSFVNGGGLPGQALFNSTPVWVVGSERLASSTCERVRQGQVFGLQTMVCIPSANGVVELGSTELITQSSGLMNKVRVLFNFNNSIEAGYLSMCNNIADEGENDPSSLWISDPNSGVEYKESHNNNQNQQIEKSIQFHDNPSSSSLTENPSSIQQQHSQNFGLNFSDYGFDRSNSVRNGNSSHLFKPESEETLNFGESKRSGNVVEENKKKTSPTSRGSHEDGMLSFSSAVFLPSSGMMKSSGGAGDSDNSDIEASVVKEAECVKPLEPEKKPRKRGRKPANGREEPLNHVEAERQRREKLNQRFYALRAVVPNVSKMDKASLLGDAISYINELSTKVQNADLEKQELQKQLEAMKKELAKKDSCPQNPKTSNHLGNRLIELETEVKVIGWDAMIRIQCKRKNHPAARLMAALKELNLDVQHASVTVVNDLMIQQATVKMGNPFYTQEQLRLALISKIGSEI
Chain of GhTPL (as listed by the source): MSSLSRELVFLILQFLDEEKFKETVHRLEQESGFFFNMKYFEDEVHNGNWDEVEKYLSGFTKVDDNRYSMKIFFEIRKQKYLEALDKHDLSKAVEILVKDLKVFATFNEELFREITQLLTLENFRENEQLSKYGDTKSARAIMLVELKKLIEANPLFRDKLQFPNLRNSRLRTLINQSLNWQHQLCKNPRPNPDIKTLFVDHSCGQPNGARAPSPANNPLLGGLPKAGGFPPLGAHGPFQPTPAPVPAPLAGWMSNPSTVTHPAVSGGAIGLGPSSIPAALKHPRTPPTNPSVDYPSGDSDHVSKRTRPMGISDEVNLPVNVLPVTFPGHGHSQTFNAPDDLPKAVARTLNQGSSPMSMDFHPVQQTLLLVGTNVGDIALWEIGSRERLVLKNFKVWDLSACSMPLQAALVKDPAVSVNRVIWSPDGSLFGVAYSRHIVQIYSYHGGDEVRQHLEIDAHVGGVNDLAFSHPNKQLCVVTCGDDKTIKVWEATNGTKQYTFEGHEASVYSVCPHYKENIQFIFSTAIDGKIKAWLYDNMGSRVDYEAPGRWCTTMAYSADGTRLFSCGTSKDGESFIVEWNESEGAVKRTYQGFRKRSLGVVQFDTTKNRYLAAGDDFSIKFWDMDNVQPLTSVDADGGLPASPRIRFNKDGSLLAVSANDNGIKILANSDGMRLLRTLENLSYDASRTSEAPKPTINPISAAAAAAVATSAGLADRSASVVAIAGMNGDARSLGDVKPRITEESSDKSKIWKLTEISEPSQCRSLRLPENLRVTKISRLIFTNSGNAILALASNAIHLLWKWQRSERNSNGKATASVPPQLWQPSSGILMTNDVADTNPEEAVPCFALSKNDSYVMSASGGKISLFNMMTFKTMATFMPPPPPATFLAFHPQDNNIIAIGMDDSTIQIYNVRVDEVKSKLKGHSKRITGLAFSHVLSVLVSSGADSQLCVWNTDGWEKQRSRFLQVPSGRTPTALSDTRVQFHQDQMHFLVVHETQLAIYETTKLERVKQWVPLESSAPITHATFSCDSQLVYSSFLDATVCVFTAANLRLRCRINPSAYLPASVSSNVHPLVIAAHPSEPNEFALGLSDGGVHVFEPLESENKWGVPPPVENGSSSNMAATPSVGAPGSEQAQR

B1: GhJAZ9: cotton JAZ9 protein, sequence SEQ ID No. 2, highest homology to AtJAZ9 (protein)
chain: MERDFLGLNSNEPLAVVKDDVNTDKYKQIGFTKSSGIQWPFSNKVFAVPQLMNFNFAQGDKTKKTGYDSKVSPLFMPISTMDASELQKSFNHNWNGGGHFSLTDSHVQHNTNMFPASNQTISVSGSNPFVKNHFTTTGQNFPANTIKPQFLGGVPVTTPHSVLPTLGTVGGSVEPCAQTSGSPAQLTIFYAGEVNVFDDITPEKAQAIMFLAGNGSSMASNSAYPKPPVQTPILKPVQVDSVPANQLINTQLSFGMPSPLPVSSHAGMQSWSGSTSTEEQIICKASVPPTPSTPISKLESPNLVNTMGSDAATGMMPSVPQARKASLARFLEKRKGRIMSTASPYNLISKKSLDYATTMESNA
As to B1, the “interaction with GhMYC2” value in the test with GhMYC2 [1] was “weak”. In addition, the “fluorescence with GhMYC2 after applying luciferase substrate” value in the test on GhMYC2 [2] is given as “weaker fluorescence”.

B2: GhJAZ1 after deletion of Jas domain: GhJAZ1 mutant with Jas domain deleted, protein sequence SEQ ID No. 87 (protein)
chain: MSSCSESTAMKPARSPEKPSFAQTCNLLSQYLKEKGSFGDLSLGMTCNVEANGTPVVPPPTMNLFPLNDKSDDVCGRNGGNPKNLTSMDLFPQQAGLASKDDSPNKLEPQTAPMTIFYGGQVIVFNDFPANKAKEIMLLASNSSSQSNNSFNPIPFTSSIARSPIESSIGVPPTSKPVHPAQRAVPGNNSAAAPSLSGDNKSWLGLAAQSP
As for B2, in the test with GhTPL, the “interaction with GhTPL” value is recorded as “significantly weakened”. In addition, the “interaction with GhCOI1” value with GhCOI1 is given as “significantly weakened”.

B3: GhJAZ1 after deletion of ZIM domain: GhJAZ1 mutant with ZIM domain deleted, protein sequence SEQ ID No. 85 (protein)
chain: MSSCSESTAMKPARSPEKPSFAQTCNLLSQYLKEKGSFGDLSLGMTCNVEANGTPVVPPPTMNLFPLNDKSDDVCGRNGGNPKNLTSMDLFPQQAGLASKDDSPNKLEPQTASSSQSNNSFNPIPFTSSIARSPIESSIGVPPTSKPVHPAQRAVPGDLPIARRASLHRFLEKRKDRITAKAPYQINNSAAAPSLSGDNKSWLGLAAQSP
For the molecule B3, the “interaction with GhMYC2” value in the test with GhMYC2 [1] is “significantly weakened”. In addition, in the test on GhCOI1, the “interaction with GhCOI1” value is “significantly weakened”. The “interaction with GhNINJA” value in the test on GhNINJA was “significantly weakened”.

(Values after US20240279288A1, “APPLICATION OF PLANT JAZ PROTEINS AND DERIVED POLYPEPTIDES IN PREVENTION AND TREATMENT OF HUMAN AND ANIMAL TUMORS” (ANYANG INSTITUTE OF SINO-COTTON INDUSTRY INNOVATION, priority 2021, published 2024).)
